One block for each substance: values may come before it.
Columns and labels:
[1] = biological target: T1, Arc1p dN del1-131 (Saccharomyces cerevisiae) (UniProt P46672); assay: ITC; details: FP: 25 mM Tris-HCl pH 7.5, 2 mM MgCl2, 50 mM NaCl (Trbp111) or 150 mM NaCl (Arc1p), room temperature, ITC: 25 mM Tris-HCl pH 7.4, 150 mM NaCl
T1 sequence: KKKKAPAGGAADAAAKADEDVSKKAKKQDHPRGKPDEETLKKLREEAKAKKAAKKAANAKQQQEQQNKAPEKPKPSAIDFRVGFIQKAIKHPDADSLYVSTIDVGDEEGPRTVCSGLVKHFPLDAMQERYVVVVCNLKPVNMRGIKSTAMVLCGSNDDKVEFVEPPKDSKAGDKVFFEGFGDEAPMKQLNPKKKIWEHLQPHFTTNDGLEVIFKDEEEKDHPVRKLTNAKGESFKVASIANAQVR

[2] = biological target: Aquifex aeolicus Trbp111 (tRNA-binding protein, 111 amino acids) (Aquifex aeolicus); assay: crystal structure; unbound (apo) Trbp111, 2.3 Å, space group C222_(1); crystals grew from a mixture with tRNA^Ile, 0.2 M lithium sulfate, 0.1 M Tris-HCl pH 8.5, 25% PEG 3350
[3] = biological target: T2, Arc1p dNdM1 (Saccharomyces cerevisiae) (UniProt P46672); assay: ITC; details: FP: 25 mM Tris-HCl pH 7.5, 2 mM MgCl2, 50 mM NaCl (Trbp111) or 150 mM NaCl (Arc1p), room temperature, ITC: 25 mM Tris-HCl pH 7.4, 150 mM NaCl
T2 sequence (P46672 whole entry, looked up): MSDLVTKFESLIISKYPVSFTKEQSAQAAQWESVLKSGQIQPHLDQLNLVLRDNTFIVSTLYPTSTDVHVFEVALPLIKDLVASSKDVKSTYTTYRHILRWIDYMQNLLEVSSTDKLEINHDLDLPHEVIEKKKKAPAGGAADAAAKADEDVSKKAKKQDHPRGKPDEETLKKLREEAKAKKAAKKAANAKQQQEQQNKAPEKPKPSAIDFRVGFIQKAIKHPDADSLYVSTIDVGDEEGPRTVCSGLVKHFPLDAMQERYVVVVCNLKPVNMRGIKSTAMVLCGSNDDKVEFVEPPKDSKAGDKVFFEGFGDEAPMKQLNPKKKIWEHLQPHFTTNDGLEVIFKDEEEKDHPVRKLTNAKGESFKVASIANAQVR

Substance: tRNAIle G18C/G19C
Kd [1]: 3.33 µM

stoichiometry N [2]: 2
Substance: Aquifex aeolicus Trbp111 (tRNA-binding protein, 111 amino acids) (natural protein)

Substance: AGGCUUGUAGCUCAGGUGGUUAGAGCGCACCCCUGAUAAGGGUGAGGGCGGUGGUUCAAGUCCACUCAGGCCUACCA [tRNAIle WT]
Kd [3]: 2.55 µM

Source: publication PMC11286949
